Publication PMC3694950

Target: mitochondrial large-conductance Ca2+-regulated potassium channel (mitoBKCa channel) (human (endogenous in U-87 MG)) (UniProt Q12791)
UniProt Q12791, sequence (Q12791 whole entry, looked up): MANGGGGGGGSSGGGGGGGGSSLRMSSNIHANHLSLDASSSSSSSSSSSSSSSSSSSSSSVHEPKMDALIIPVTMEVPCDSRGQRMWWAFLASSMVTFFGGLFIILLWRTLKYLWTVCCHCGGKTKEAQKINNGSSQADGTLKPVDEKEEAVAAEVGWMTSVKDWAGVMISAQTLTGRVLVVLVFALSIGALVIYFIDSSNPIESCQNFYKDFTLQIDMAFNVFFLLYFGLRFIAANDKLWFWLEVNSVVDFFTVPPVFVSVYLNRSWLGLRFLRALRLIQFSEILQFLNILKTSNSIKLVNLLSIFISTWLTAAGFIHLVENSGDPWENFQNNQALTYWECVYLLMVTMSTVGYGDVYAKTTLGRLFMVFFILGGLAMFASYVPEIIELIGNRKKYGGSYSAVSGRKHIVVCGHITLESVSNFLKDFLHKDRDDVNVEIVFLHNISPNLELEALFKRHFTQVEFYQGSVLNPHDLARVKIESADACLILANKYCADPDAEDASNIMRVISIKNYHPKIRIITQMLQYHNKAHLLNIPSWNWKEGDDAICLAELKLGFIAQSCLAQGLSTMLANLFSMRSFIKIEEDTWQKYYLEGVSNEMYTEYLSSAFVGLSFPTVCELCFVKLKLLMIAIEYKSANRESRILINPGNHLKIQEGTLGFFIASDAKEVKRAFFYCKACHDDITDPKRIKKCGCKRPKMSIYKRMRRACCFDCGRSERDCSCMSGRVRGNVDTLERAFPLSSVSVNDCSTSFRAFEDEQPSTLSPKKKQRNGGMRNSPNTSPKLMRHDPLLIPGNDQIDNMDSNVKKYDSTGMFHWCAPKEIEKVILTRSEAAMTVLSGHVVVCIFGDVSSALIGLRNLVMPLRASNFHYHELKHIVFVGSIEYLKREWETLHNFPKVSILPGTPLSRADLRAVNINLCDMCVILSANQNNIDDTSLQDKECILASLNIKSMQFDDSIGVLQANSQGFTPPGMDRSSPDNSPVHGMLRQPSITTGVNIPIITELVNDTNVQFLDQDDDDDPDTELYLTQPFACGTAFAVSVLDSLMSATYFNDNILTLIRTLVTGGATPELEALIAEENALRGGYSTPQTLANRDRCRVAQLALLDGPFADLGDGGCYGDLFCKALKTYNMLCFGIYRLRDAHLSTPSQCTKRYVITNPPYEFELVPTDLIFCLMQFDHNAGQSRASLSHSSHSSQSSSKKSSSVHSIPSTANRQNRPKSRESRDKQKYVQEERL

## iberiotoxin (from UniProt P24663 1-37) (peptide)
  open probability (Po) of the mitoBKCa channel in patch-clamped mitoplasts (inside-out) after 100 nM iberiotoxin; control Po 0.95: 0.15 Po
